# Reference: US20240294644A1 (BLUEFIN BIOMEDICINE, published 2024)
# Where a chain is given by its changes, count along the chain named.
# T1: recombinant human VTCN1-his protein (human, UniProt Q7Z7D3 25-259, limits assumed)
# T1 construct: also called human VTCN1 protein; recombinant VTCN1
# T1 sequence: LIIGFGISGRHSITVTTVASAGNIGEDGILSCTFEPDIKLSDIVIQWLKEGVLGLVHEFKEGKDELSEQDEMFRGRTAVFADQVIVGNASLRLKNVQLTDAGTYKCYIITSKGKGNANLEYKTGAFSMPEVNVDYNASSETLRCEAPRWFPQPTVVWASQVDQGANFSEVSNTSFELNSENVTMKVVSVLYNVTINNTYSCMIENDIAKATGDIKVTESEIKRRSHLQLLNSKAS
# T2: mouse VTCN1 protein (mouse, UniProt Q7TSP5 25-257, limits assumed)
# T2 construct: The construct and its tag are not described
# T2 sequence (looked up): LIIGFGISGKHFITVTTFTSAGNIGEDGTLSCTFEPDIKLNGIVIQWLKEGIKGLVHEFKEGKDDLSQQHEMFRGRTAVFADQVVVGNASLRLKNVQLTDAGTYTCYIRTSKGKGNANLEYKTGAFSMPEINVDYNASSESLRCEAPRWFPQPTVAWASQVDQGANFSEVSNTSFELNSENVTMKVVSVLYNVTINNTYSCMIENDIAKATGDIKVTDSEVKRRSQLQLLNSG
# T3: mouse VTCN1 expressed on 293 cells (mouse, UniProt Q7TSP5 25-257)
# T3 construct: whole, on cells
# T3 sequence (looked up): T2 sequence (looked up)
# T4: VTCN1 IgC domain only construct expressed on 293 cells (human, UniProt Q7Z7D3 150-259, limits assumed)
# T4 construct: The construct lacks the IgV domain
# T4 sequence: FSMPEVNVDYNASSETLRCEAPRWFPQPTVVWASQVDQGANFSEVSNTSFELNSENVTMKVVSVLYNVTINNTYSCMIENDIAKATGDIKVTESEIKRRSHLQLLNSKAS
# T5: VTCN1 IgV domain only construct expressed on 293 cells (human, UniProt Q7Z7D3 29-149, limits assumed)
# T5 construct: The construct lacks the IgC domain
# T5 sequence: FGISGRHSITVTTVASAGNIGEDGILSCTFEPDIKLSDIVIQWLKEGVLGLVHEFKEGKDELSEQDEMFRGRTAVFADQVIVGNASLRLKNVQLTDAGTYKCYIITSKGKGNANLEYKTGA
# T6: human VTCN1 expressed on cells (293-VTCN1 cells; SKBR3, MX-1 and ZR-75-1 cells that express it naturally) (human, UniProt Q7Z7D3 25-282)
# T6 construct: The cDNA was bought from Origene
# T6 sequence: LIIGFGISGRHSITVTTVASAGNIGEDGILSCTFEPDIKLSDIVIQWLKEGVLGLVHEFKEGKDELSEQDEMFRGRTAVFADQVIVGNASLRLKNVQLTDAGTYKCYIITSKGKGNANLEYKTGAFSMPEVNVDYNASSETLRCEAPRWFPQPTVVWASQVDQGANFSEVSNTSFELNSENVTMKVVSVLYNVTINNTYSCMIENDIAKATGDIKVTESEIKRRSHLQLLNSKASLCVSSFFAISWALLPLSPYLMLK
# T7: cynomolgus monkey VTCN1 protein (cynomolgus monkey, UniProt A0A2K5U6P5 25-259)
# T7 construct: The construct and its tag are not described; also called cyno VTCN1
# T7 sequence: T1 sequence with L53I
# T8: cynomolgus monkey VTCN1 expressed on 293 cells (cynomolgus monkey, UniProt A0A2K5U6P5 25-282)
# T8 construct: whole, on cells
# T8 sequence: T6 sequence with L53I, F242L, S252A
# B1: hu6D9_57A3 (antibody, V domains shown)
# VH: QVQLVESGGGVVQPGRSLRLSCAVSGFSLTSYGVQWVRQAPGKGLEWLGVIWSSGSTDYNAAFLSRLTISKDNSKNTVYFQMNSLRAEDTAVYYCARDVTTIVEGFAHWGQGTLVTVSS
# VL: DIQMTQSPSSLSASVGDRVTITCKASEKVGTYVSWYQQKPGKAPKLLIYGASNRYTGVPSRFSGSGSGTDFTLTISSLQPEDFATYYCGQTYSYPFTFGQGTKLEIK
# notes: Humanized 6D9
# B2: hu6D9_57A4 (antibody, V domains shown)
# VH: B1 VH with G9P, G49A, N76S
# VL: B1 VL
# notes: Humanized 6D9
# B3: hu6D9_66B1 (antibody, V domains shown)
# VH: B1 VH with S28T, L29F, T30S
# VL: B1 VL
# notes: Humanized 6D9
# B4: hu6D9_57A5 (antibody, V domains shown)
# VH: B1 VH with G49A
# VL: B1 VL
# notes: Humanized 6D9
# B5: hu6D9_66C2 (antibody, V domains shown)
# VH: B1 VH with Q1E, V11L, R16G, N73T
# VL: B1 VL with G66R, L104V
# notes: Humanized 6D9
# B6: 4C7_63A1 (antibody, V domains shown)
# VH: QVQLQESGPGLVKPSGTLSLTCAVSGGSISSSNWWSWVRQPPGKGLEAIGEIYHSGNTNYNPSLKSRVTISVDKSKNQFSLKLSSVTAADTAIYYCARDGYSSGWYWGYFDYWGQGTLVTVSS
# VL: EIVMTQSPATLSVSPGERATLSCRASQSVNSNLAWYQQKPGQAPWLLIYGASTRATGIPARFSGSGSGTEFTLTISSLQSEDFAVYYCQQYNHWPYTFGQGTKLEIK
# notes: Fully human antibody
# B7: 13H9_44D2 (antibody, V domains shown)
# VH: QVQLQESGPGLVKPSETLSLTCTVSGGSISSYYWSWIRQPPGKGLEWIGYIYYSGSTNNNPSLKSRVTISVDTSKNQFSLKLISVTAADTAVYYCARVYNNYDWGFDYWGQGTLVTVSS
# VL: B6 VL with N30S, W45R, S76R, N92H, H93N, Y96L, Q100G
# notes: Fully human antibody
# B8: 12B5_44B1 (antibody, V domains shown)
# VH: QVQLVQSGAEVKKPGSSMKVSCKASGDTFSSYAISWVRQAPGQGLEWMAGIIPVFGTAHNAQKFQGRVTITADKSTSTAYMELSSLRSEDTAVYYCTRGGPYFDYWGQGTLVTVSS
# VL: EIVMTQSPATLSVSPGERAALSCRASQSVSSNLAWYQQKPGQAPRLLIYGVSTRATGIPDRFNGSGSGTEFTLTISSLQSEDFGAYYCQQYKKWPFIFGPGTKLEIK
# notes: Fully human antibody
# B9: 14D6_60B5 (antibody, V domains shown)
# VH: QVQLVHSGAEVKRPGSSVKVSCKASGGTFSSYAISWVRQAPGQGLEWMGGIIPIFGIANYAQKFQGRVTIIADKSTRTAYMELSSLRSEDTAVYYCARGGPYFDYWGQGILVTVSS
# VL: B6 VL with N30S, W45R, H93K, Y96F, Q100P, L104V, E105D
# notes: Fully human antibody
# B10: 16H12_60B4 (antibody, V domains shown)
# VH: B9 VH with L4V, H6Q, R13K, G27D, S31N, A58T, A97S
# VL: B6 VL with N30S, W45R, N92K, H93K, Y96F, Q100P, L104V, E105D
# notes: Fully human antibody
# B11: 7C8 (antibody, V domains shown)
# VH: QVQLQESGPGLVKPSETLSLTCAVSGYSISSGYYWGWIRQPPGKGLEWIGSIYHSGTTYYNPSLKSRVTISVDTSKNQFSLKLNSVTAADTAVYYCATYSSGWYFYFDYWGQGTLVTVSS
# VL: DIQLTQSPSFLSASVGDRVTITCRASQGISSYLAWYQQKPGKAPKLLIYVASTLQSGVPSRFSGSGSGTEFTLTISSLQPEDFATYYCQQLNSYPITFGQGTRLEIK
# notes: Fully human antibody; also called VTCN1 antibody 7C8
# Target: T1, recombinant human VTCN1-his protein
# Experiment: BLI (OCTET), human VTCN1 protein
row,Kd [nM],Binder
1,28,B1
2,36,B2
3,27,B3
4,36,B4
5,44,B5

# Target: T1, recombinant human VTCN1-his protein
# Experiment: BLI (OCTET), human VTCN1 protein
# Remark: another data set of the same source
row,Kd [nM],Binder
1,49,B6
2,128,B7
3,2,B8
4,5,B9
5,0.7,B10

# Target: T2, mouse VTCN1 protein
# Experiment: BLI (OCTET), mouse VTCN1 protein
row,Kd [nM],Binder
1,44,B6
2,268,B7
3,38,B8
4,56,B9
5,27,B10

# Target: T3, mouse VTCN1 expressed on 293 cells
# Experiment: flow cytometry on 293-VTCN1 (mouse) cells
row,binding result,Binder
1,binds,B11

# Target: T4, VTCN1 IgC domain only construct …
# Experiment: flow cytometry on 293-VTCN1-IgC domain cells
row,binding result,Binder
1,no binding,B11

# Target: T5, VTCN1 IgV domain only construct …
# Experiment: flow cytometry on 293-VTCN1-IgV domain cells
row,binding result,Binder
1,no binding,B11

# Target: T6, human VTCN1 expressed on cells …
# Experiment: flow cytometry and immunofluorescence on cells
row,binding result,Binder
1,binds,B11

# Target: T7, cynomolgus monkey VTCN1 protein
# Experiment: BLI (OCTET), cynomolgus monkey VTCN1 protein
row,Kd [nM],Binder
1,47,B6
2,2,B8
3,5,B9
4,1,B10

# Target: T6, human VTCN1 expressed on cells …
# Experiment: flow cytometry, antibody titration on 293-huVTCN1 cells
row,EC50 [nM],Binder
1,2.1,B6
2,1.2,B7
3,9,B8
4,4.6,B9
5,1.7,B10

# Target: T3, mouse VTCN1 expressed on 293 cells
# Experiment: flow cytometry, antibody titration on 293-muVTCN1 cells
row,EC50 [nM],Binder
1,3.5,B6
2,1.8,B7
3,28.5,B8
4,11.4,B9
5,4.8,B10

# Target: T8, cynomolgus monkey VTCN1 expressed on …
# Experiment: flow cytometry, antibody titration on 293-cynoVTCN1 cells
row,EC50 [nM],Binder
1,1.7,B6
2,9,B8
3,5.1,B9
4,2.1,B10

# Target: T6, human VTCN1 expressed on cells …
# Experiment: flow cytometry, antibody titration on SKBR3 cells (endogenous VTCN1)
row,EC50 [nM],Binder
1,4.4,B6
2,1.9,B7
3,35.5,B8
4,51.4,B9
5,4,B10

# Target: T8, cynomolgus monkey VTCN1 expressed on …
# Experiment: flow cytometry of serially diluted antibody on 293-cynoVTCN1 cells, dye-labelled secondary antibody, MFI
row,EC50 (read off the curve) [nM],Binder
1,~2,B4

# Target: T3, mouse VTCN1 expressed on 293 cells
# Experiment: flow cytometry of serially diluted antibody on 293-mouseVTCN1 cells, dye-labelled secondary antibody, MFI
row,binding result,Binder
1,binds,B4

# Target: T6, human VTCN1 expressed on cells …
# Experiment: flow cytometry of serially diluted antibody on SKBR3 cells (natural VTCN1), dye-labelled secondary antibody, MFI
row,EC50 (read off the curve) [nM],Binder
1,~6,B4
